Test results from IntAct's records for PubMed 28469241.

B1: Heart- and neural crest derivatives-expressed protein 2 (Mus musculus), Q61039 (parent)
chain: MSLVGGFPHHPVVHHEGYPFAAAAAAAAAAAASRCSHEENPYFHGWLIGHPEMSPPDYSMALSYSPEYASGAAGLDHSHYGGVPPGAGPPGLGGPRPVKRRGTANRKERRRTQSINSAFAELRECIPNVPADTKLSKIKTLRLATSYIAYLMDLLAKDDQNGEAEAFKAEIKKTDVKEEKRKKELNEILKSTVSSNDKKTKGRTGWPQHVWALELKQ
partner: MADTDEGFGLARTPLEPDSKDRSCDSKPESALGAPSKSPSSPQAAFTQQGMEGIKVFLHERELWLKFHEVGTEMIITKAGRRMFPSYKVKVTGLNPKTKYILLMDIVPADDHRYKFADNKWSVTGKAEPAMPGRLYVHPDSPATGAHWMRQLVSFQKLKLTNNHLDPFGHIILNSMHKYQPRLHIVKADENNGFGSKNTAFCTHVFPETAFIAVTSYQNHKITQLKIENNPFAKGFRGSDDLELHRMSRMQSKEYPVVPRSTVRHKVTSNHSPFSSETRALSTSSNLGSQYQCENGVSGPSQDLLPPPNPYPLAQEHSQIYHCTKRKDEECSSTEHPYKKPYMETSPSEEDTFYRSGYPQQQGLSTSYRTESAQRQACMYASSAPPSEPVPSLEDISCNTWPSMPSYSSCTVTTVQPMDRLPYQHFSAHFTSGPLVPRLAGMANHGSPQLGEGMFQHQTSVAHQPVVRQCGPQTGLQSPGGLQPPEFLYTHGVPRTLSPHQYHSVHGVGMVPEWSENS

Variants of: B1
Conditions: with tbx5_mouse Tbx5, P70326
In the case of G202V, the “effect of a mutation on the interaction” value is reported as “decreasing interaction strength”.
